Here are results for 3 molecules from article PMC5633104 (The Journal of Biological Chemistry, 2017).

Assay [1] addresses His-tagged β-catenin–WT, tyrosine-phosphorylated form (P–β-catenin) (UniProt P35222). Briefly: ELISA; called a pairwise binding assay, done as in refs. 19, 20; by the legends a β-catenin-coated 96-well microtiter plate with Jak3 added, optical density read; Kd by Hyperbol-fit (MicroCal Origin).
Assay [2] deals with Hif1α (UniProt Q16665). Nature of the assay: co-IP and immunoblot. As to conditions: reference: wild type, EGF + IL-2; sites Y30,Y64,Y86.
Assay [3] deals with T1, Autophosphorylated GST-tagged Jak3-WT (P-Jak3-WT) (UniProt P52333 1-1124, autophosphorylated on tyrosine (sites not given)).
T1 construct: also called phosphorylated Jak3; source: E. coli BL-21, purified, autophosphorylated
T1 sequence (looked up): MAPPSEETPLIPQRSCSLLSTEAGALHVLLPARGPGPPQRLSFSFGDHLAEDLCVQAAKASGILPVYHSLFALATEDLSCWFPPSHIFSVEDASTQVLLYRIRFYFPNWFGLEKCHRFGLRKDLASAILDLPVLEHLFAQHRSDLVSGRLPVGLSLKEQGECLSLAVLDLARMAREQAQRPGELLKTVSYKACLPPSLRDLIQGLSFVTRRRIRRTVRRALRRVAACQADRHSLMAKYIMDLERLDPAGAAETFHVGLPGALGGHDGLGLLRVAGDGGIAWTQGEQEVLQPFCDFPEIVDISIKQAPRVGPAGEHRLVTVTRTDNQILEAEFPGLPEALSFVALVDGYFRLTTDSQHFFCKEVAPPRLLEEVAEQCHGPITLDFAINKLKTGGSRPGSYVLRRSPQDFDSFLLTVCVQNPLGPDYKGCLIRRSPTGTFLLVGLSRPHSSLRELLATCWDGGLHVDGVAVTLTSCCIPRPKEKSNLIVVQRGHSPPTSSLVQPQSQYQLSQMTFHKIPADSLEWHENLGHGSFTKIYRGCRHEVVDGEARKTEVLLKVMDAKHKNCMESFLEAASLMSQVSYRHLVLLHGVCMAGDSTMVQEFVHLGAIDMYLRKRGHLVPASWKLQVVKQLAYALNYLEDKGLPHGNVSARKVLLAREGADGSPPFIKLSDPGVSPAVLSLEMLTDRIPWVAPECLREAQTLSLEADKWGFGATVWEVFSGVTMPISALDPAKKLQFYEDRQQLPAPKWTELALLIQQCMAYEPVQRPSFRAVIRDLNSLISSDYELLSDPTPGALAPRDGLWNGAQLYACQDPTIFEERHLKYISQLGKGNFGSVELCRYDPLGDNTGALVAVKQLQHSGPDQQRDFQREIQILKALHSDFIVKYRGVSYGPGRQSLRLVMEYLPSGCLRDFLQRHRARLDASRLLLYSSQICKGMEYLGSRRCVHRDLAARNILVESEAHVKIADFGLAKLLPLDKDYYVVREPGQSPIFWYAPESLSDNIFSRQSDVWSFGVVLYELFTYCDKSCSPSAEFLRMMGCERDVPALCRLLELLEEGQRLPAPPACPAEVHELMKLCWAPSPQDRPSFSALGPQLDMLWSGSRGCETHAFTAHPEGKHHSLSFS
Nature of the assay: ELISA; called a pairwise binding assay, done as in refs. 19, 20; by the legends a β-catenin-coated 96-well microtiter plate with Jak3 added, optical density read; Kd by Hyperbol-fit (MicroCal Origin). To be noted: both partners purified.

“Jak3 with the kinase domain deleted (domain or fragment)” returned a fold decrease of the interaction against Jak3-WT in assay [1] greater than 4 fold.

Regarding “β-catenin (from UniProt P35222) Y30F,Y64F,Y86F, EGF + IL-2”, the “binding against the reference” value in assay [2] is “stronger”.

B1: His-tagged β-catenin–WT, tyrosine-phosphorylated form (P–β-catenin) (natural protein, UniProt P35222 1-781, looked up)
chain: MATQADLMELDMAMEPDRKAAVSHWQQQSYLDSGIHSGATTTAPSLSGKGNPEEEDVDTSQVLYEWEQGFSQSFTQEQVADIDGQYAMTRAQRVRAAMFPETLDEGMQIPSTQFDAAHPTNVQRLAEPSQMLKHAVVNLINYQDDAELATRAIPELTKLLNDEDQVVVNKAAVMVHQLSKKEASRHAIMRSPQMVSAIVRTMQNTNDVETARCTAGTLHNLSHHREGLLAIFKSGGIPALVKMLGSPVDSVLFYAITTLHNLLLHQEGAKMAVRLAGGLQKMVALLNKTNVKFLAITTDCLQILAYGNQESKLIILASGGPQALVNIMRTYTYEKLLWTTSRVLKVLSVCSSNKPAIVEAGGMQALGLHLTDPSQRLVQNCLWTLRNLSDAATKQEGMEGLLGTLVQLLGSDDINVVTCAAGILSNLTCNNYKNKMMVCQVGGIEALVRTVLRAGDREDITEPAICALRHLTSRHQEAEMAQNAVRLHYGLPVVVKLLHPPSHWPLIKATVGLIRNLALCPANHAPLREQGAIPRLVQLLVRAHQDTQRRTSMGGTQQQFVEGVRMEEIVEGCTGALHILARDVHNRIVIRGLNTIPLFVQLLYSPIENIQRVAAGVLCELAQDKEAAEAIEAEGATAPLTELLHSRNEGVATYAAAVLFRMSEDKPQDYKKRLSVELTSSLFRTEPMAWNETADLGLDIGAQGEPLGYRQDDPSYRSFHSGGYGQDALGMDPMMEHEMGGHHPGADYPVDGLPDLGHAQDLMDGLPPGDSNQLAWFDTDL
modifications: tyrosine-phosphorylated (made in TKX1; sites not stated)
notes: β-catenin, wild type, full-length cDNA; also called phosphorylated β-catenin; source: E. coli TKX1, purified
With B1, the Kd in assay [3] was 280 nM.
